B1: Friend Murine Leukemia Virus receptor binding domain (domain or fragment, UniProt P03390 35-270, looked up)
chain: AAPGSSPHQVYNITWEVTNGDRETVWAISGNHPLWTWWPVLTPDLCMLALSGPPHWGLEYQAPYSSPPGPPCCSGSSGSSAGCSRDCDEPLTSLTPRCNTAWNRLKLDQVTHKSSEGFYVCPGSHRPREAKSCGGPDSFYCASWGCETTGRVYWKPSSSWDYITVDNNLTTSQAVQVCKDNKWCNPLAIQFTNAGKQVTSWTTGHYWGLRLYVSGRDPGLTFGIRLRYQNLGPRVP
modifications: N-linked glycans at Asn46 and Asn202
notes: the previously crystallized construct (PDB 1AOL); Residues 43-265 were built in the cryo-EM model; also called FrMLV-RBD; source: adherent HEK293T cells (lentiviral expression), secreted, purified (Ni-NTA, SEC)
B2: Cationic Amino acid Transporter 1 (CAT1) from Mus musculus, purified (receptor)
chain: not shown
modifications: N-linked glycans at Asn223 and Asn229

Tests used:
[1] = target: B2; experiment: cryo-EM structure; MmCAT1:FrMLV-RBD complex purified by SEC in LMNG/CHS; apo and with 34 mM arginine, 20 mM lysine or 20 mM ornithine; conditions: both partners purified
[2] = target: B1; experiment: BLI; MmCAT1 (100 nM, twin-strep and GFP tag) loaded on Strep-Tactin XT probes (Gator Pivot); FrMLV-RBD at 2.7 uM, 900, 300, 100 and 33.3 nM; 25 mM HEPES pH 7.5, 125 mM NaCl, 0.003% LMNG, 0.0006% CHS; room temperature; 5 min association, 5 min dissociation; conditions: both partners purified

Row | Binder | stoichiometry N [1] | Kd [2]
1 | B1 | 1 | 
2 | B2 |  | 9.7 nM

— article PMC13022406, “Amino acid and viral binding by the high-affinity Cationic Amino acid Transporter 1 (CAT1) from Mus musculus” (Nature Communications, 2026)
